Assays:
重组人IL-13 (rh-IL-13) = 重组人IL-13 (rh-IL-13) (human, UniProt P35225 35-146); experiment: cell-based or functional assay
hTSLP-His = hTSLP-His (human, UniProt Q969D9 29-159, limits assumed); experiment: cell-based or functional assay
人TSLP (hTSLP) = molecular target: T1, 人TSLP (hTSLP) (human, UniProt Q969D9 29-159); experiment: SPR and ELISA, conclusion of Example 3
T1 construct: also called rhTSLP

Sequence of 重组人IL-13 (rh-IL-13) (P35225 35-146 limits assumed): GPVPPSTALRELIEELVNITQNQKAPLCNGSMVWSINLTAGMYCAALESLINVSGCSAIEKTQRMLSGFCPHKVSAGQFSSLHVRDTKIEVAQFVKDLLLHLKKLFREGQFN

Binder | IC50 (IL-13信号传导级联抑制, HEK-Blue IL-4/IL-13, SEAP) (重组人IL-13 (rh-IL-13)) | IC50 (MUTZ-5细胞pSTAT5抑制) (hTSLP-His) | further results
BDG33.023 (antibody, V domains shown) VH: QMQLVESGGGVVQPGRSLRLSCAASGFAFRTYGMHWVRQAPGKGLEWVAVIWYDGSNTHYADSVKGRFTITRDNSKNTLNLQMNSLRAEDTAVYYCARAPQWYLSAEAFDLWGQGTMVTVSS VL: SYVLTQPPSVSVAPGQTARITCGGNLIGSKLVHWYQQKPGQAPVLVVYDDSDRPSRIPERFSGSNSGNTATLTISRVEAGDEADYYCQVWDHSSDHVVFGGGTKLTVL | 1.3 nM | – | IC50 (MUTZ5细胞中TSLP依赖性pSTAT5活化的抑制) (hTSLP-His): 0.013 nM
BDG33.025 (antibody, V domains shown) VH: QMQLVESGGGVVQPGRSLRLSCAASGFTFRTYGMHWVRQAPGKGLEWVADIWYDGSNKHYADSVKGRFTITRDNSKNTLNLQMNSLRAEDTAVYYCARAPQWYLVAEPFDLWGQGTMVTVSS VL: SYVLTQPPSVSVAPGQTARITCGGNLIGSKLVHWYQQKPGQAPVLVVYDDSDRPSLIPERFSGSNSGNTATLTISRVEAGDEADYYCQVWDSSSDGVVFGGGTKLTVL | 25 nM | – | –
BDG38.074 (antibody, V domains shown) VH: QMQLVESGGGVVQPGRSLRLSCAASGFAFRTYGMHWVRQAPGKGLEWVAVIWDDGSNTHYADSVKGRFTITRDNSKNTLNLQMNSLRAEDTAVYYCVRAPQWYLTAEAFDLWGQGTMVTVSS VL: SYVLTQPPSVSVAPGQTATITCGGNMIGAYLVHWYQQKPGQAPLLVVYDDVDRPNRIPERFSGSNSGNTATLTISRVEAGDEADYYCQVWDHNTDKMVFGGGTKLTVL | – | ~0.035 nM | –
BDG38.079 (antibody, V domains shown) VH: QMQLVESGGGVVQPGRSLRLSCAASGFAFRTYGMHWVRQAPGKGLEWVAVIWYDGSNTHYADSVKGRFTITRDNSKNTLNLQMNSLRAEDTAVYYCVRAPQWYLTAEAFDLWGQGTMVTVSS VL: SYVLTQPPSVSVAPGETATITCGGNMIGGYLVHWYQQKPGQAPLLVIYDDVDRPDRIPERFSGSNSGNTATLTISRVEAGDEADYYCQVWDHDSNTMVFGGGTKLTVL | – | ~0.013 nM | –
BDG33.003 (antibody, V domains shown, also called BGD33.003; 克隆C2) VH: QMQLVESGGGVVQPGRSLRLSCAASGFTFRTYGMHWVRQAPGKGLEWVAVIWYDGSNKHYADSVKGRFTITRDNSKNTLNLQMNSLRAEDTAVYYCARAPQWELTAEAFDIWGQGTMVTVSS VL: SYVLTQPPSVSVAPGQTARITCGGNLIGSKLVHWYQQKPGQAPVLVVYDDSDRPSLIPERFSGSNSGNTATLTISRVEAGDEADYYCQVWDSSSDGVVFGGGTKLTVL | – | – | binding result (人TSLP (hTSLP)): binds
